Measurements as given in patent US20170044259A1 (CYTOMX THERAPEUTICS, published 2017).

Columns and labels:
[1] = molecular target: T1, human PD-1-Fc (R and D systems, Minneapolis, Minn.) (human, UniProt Q15116 25-167); test: plate ELISA on human PD-1-Fc; apparent KD
T1 construct: bought; also called hPD-1-Fc; hPD-1; not shown: Fc part of the bought fusion

[2] = molecular target: T1, human PD-1-Fc (R and D systems, …); test: plate ELISA on human PD-1-Fc; reference A1.5
J43v2 mIgG2a = molecular target: T2, J43v2 mIgG2a; test: bacterial display clone with DyLight 650 labeled J43v2 m2a
T2 construct: also called J43 m2a; J43v2 m2a
T2 sequence (VH, as listed by the source, chain 1 of 2): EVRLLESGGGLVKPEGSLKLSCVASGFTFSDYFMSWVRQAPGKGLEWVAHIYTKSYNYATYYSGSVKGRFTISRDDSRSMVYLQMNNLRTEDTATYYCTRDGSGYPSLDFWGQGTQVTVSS
T2 sequence (VL, as listed by the source, chain 2 of 2): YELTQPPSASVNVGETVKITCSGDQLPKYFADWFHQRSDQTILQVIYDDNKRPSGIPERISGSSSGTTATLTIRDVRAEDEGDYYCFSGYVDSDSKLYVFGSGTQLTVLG

T1 sequence (Q15116 25-167 limits assumed): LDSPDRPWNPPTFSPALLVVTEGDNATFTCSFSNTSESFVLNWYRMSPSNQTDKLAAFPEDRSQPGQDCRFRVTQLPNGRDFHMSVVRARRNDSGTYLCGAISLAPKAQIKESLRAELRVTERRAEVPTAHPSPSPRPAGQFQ

| Kd [1] [nM] | Masking Efficiency [2] | binding result (J43v2 mIgG2a) | Binder |
| --- | --- | --- | --- |
| 1.8 | – | – | A1.5 (antibody, human IgG4 S228P, kappa, humanized, full length hIgG4/hKappa; also called A1.5 Ab) heavy: not shown light: DIQLTQSPSSLSASVGDRVTITCRASESVDAYGISFMNWFQQKPGKAPKLLIYAASNQGSGVPSRFSGSGSGTDFTLTISSMQPEDFATYYCQQSKDVPWTFGQGTKLEIKRTVAAPSVFIFPPSDEQLKSGTASVVCLLNNFYPREAKVQWKVDNALQSGNSQESVTEQDSKDSTYSLSSTLTLSKADYEKHKVYACEVTHQGLSSPVTKSFNRGEC |
| 68 | 38 | – | PD-1 1.5 PD005 2001 (antibody, human IgG4 S228P, kappa) heavy: not shown light: QGQSGQGMLVCSLQPTAMCERVGGGSSGGSISSGLLSGRSDNHGGGSDIQLTQSPSSLSASVGDRVTITCRASESVDAYGISFMNWFQQKPGKAPKLLIYAASNQGSGVPSRFSGSGSGTDFTLTISSMQPEDFATYYCQQSKDVPWTFGQGTKLEIKRTVAAPSVFIFPPSDEQLKSGTASVVCLLNNFYPREAKVQWKVDNALQSGNSQESVTEQDSKDSTYSLSSTLTLSKADYEKHKVYACEVTHQGLSSPVTKSFNRGEC |
| 67 | 37 | – | PD-1 1.5 PD011 2001 (antibody, human IgG4 S228P, kappa) heavy: not shown light: QGQSGQGVPWCQLTPRVMCMWAGGGSSGGSISSGLLSGRSDNHGGGSDIQLTQSPSSLSASVGDRVTITCRASESVDAYGISFMNWFQQKPGKAPKLLIYAASNQGSGVPSRFSGSGSGTDFTLTISSMQPEDFATYYCQQSKDVPWTFGQGTKLEIKRTVAAPSVFIFPPSDEQLKSGTASVVCLLNNFYPREAKVQWKVDNALQSGNSQESVTEQDSKDSTYSLSSTLTLSKADYEKHKVYACEVTHQGLSSPVTKSFNRGEC |
| 92 | 51 | – | PD-1 1.5 PD024 2001 (antibody, human IgG4 S228P, kappa) heavy: not shown light: QGQSGQGIYSCYMFASRCTSDKGGGSSGGSISSGLLSGRSDNHGGGSDIQLTQSPSSLSASVGDRVTITCRASESVDAYGISFMNWFQQKPGKAPKLLIYAASNQGSGVPSRFSGSGSGTDFTLTISSMQPEDFATYYCQQSKDVPWTFGQGTKLEIKRTVAAPSVFIFPPSDEQLKSGTASVVCLLNNFYPREAKVQWKVDNALQSGNSQESVTEQDSKDSTYSLSSTLTLSKADYEKHKVYACEVTHQGLSSPVTKSFNRGEC |
| 77 | 43 | – | PD-1 1.5 PD020 2001 (antibody, human IgG4 S228P, kappa) heavy: not shown light: QGQSGQGSVCPMYALSSMLCGAGGGSSGGSISSGLLSGRSDNHGGGSDIQLTQSPSSLSASVGDRVTITCRASESVDAYGISFMNWFQQKPGKAPKLLIYAASNQGSGVPSRFSGSGSGTDFTLTISSMQPEDFATYYCQQSKDVPWTFGQGTKLEIKRTVAAPSVFIFPPSDEQLKSGTASVVCLLNNFYPREAKVQWKVDNALQSGNSQESVTEQDSKDSTYSLSSTLTLSKADYEKHKVYACEVTHQGLSSPVTKSFNRGEC |
| 151 | 84 | – | PD-1 1.5 PD013 2001 (antibody, human IgG4 S228P, kappa) heavy: not shown light: QGQSGQGSCPLYVMSSFGGCWDGGGSSGGSISSGLLSGRSDNHGGGSDIQLTQSPSSLSASVGDRVTITCRASESVDAYGISFMNWFQQKPGKAPKLLIYAASNQGSGVPSRFSGSGSGTDFTLTISSMQPEDFATYYCQQSKDVPWTFGQGTKLEIKRTVAAPSVFIFPPSDEQLKSGTASVVCLLNNFYPREAKVQWKVDNALQSGNSQESVTEQDSKDSTYSLSSTLTLSKADYEKHKVYACEVTHQGLSSPVTKSFNRGEC |
| 57 | 32 | – | PD-1 1.5 PD016 2001 (antibody, human IgG4 S228P, kappa) heavy: not shown light: QGQSGQGVLCAAYALSSGICGGGGGSSGGSISSGLLSGRSDNHGGGSDIQLTQSPSSLSASVGDRVTITCRASESVDAYGISFMNWFQQKPGKAPKLLIYAASNQGSGVPSRFSGSGSGTDFTLTISSMQPEDFATYYCQQSKDVPWTFGQGTKLEIKRTVAAPSVFIFPPSDEQLKSGTASVVCLLNNFYPREAKVQWKVDNALQSGNSQESVTEQDSKDSTYSLSSTLTLSKADYEKHKVYACEVTHQGLSSPVTKSFNRGEC |
| 49 | 27 | – | PD-1 1.5 PD021 2001 (antibody, human IgG4 S228P, kappa) heavy: not shown light: QGQSGQGLSVECYVFSRCSSLPGGGSSGGSISSGLLSGRSDNHGGGSDIQLTQSPSSLSASVGDRVTITCRASESVDAYGISFMNWFQQKPGKAPKLLIYAASNQGSGVPSRFSGSGSGTDFTLTISSMQPEDFATYYCQQSKDVPWTFGQGTKLEIKRTVAAPSVFIFPPSDEQLKSGTASVVCLLNNFYPREAKVQWKVDNALQSGNSQESVTEQDSKDSTYSLSSTLTLSKADYEKHKVYACEVTHQGLSSPVTKSFNRGEC |
| 348 | 193 | – | PD-1 1.5 PD01 2001 (antibody, human IgG4 S228P, kappa) heavy: not shown light: QGQSGQGAMSGCSWSAFCPYLAGGGSSGGSISSGLLSGRSDNHGGGSDIQLTQSPSSLSASVGDRVTITCRASESVDAYGISFMNWFQQKPGKAPKLLIYAASNQGSGVPSRFSGSGSGTDFTLTISSMQPEDFATYYCQQSKDVPWTFGQGTKLEIKRTVAAPSVFIFPPSDEQLKSGTASVVCLLNNFYPREAKVQWKVDNALQSGNSQESVTEQDSKDSTYSLSSTLTLSKADYEKHKVYACEVTHQGLSSPVTKSFNRGEC |

Second part, the binder before the results:

| Binder | Kd [1] [nM] | Masking Efficiency [2] | binding result (J43v2 mIgG2a) |
| --- | --- | --- | --- |
| PD-1 1.5 PD022 2001 (antibody, human IgG4 S228P, kappa) heavy: not shown light: QGQSGQGFYCTYLVSLTCHPQGGGSSGGSISSGLLSGRSDNHGGGSDIQLTQSPSSLSASVGDRVTITCRASESVDAYGISFMNWFQQKPGKAPKLLIYAASNQGSGVPSRFSGSGSGTDFTLTISSMQPEDFATYYCQQSKDVPWTFGQGTKLEIKRTVAAPSVFIFPPSDEQLKSGTASVVCLLNNFYPREAKVQWKVDNALQSGNSQESVTEQDSKDSTYSLSSTLTLSKADYEKHKVYACEVTHQGLSSPVTKSFNRGEC | 41 | 23 | – |
| PD-1 1.5 PD002 2001 (antibody, human IgG4 S228P, kappa) heavy: not shown light: QGQSGQGDVNCAIWYSVCTTVPGGGSSGGSISSGLLSGRSDNHGGGSDIQLTQSPSSLSASVGDRVTITCRASESVDAYGISFMNWFQQKPGKAPKLLIYAASNQGSGVPSRFSGSGSGTDFTLTISSMQPEDFATYYCQQSKDVPWTFGQGTKLEIKRTVAAPSVFIFPPSDEQLKSGTASVVCLLNNFYPREAKVQWKVDNALQSGNSQESVTEQDSKDSTYSLSSTLTLSKADYEKHKVYACEVTHQGLSSPVTKSFNRGEC | 21 | 12 | – |
| PD-1 1.5 PD018 2001 (antibody, human IgG4 S228P, kappa) heavy: not shown light: QGQSGQGAPRCYMFASYCKSQYGGGSSGGSISSGLLSGRSDNHGGGSDIQLTQSPSSLSASVGDRVTITCRASESVDAYGISFMNWFQQKPGKAPKLLIYAASNQGSGVPSRFSGSGSGTDFTLTISSMQPEDFATYYCQQSKDVPWTFGQGTKLEIKRTVAAPSVFIFPPSDEQLKSGTASVVCLLNNFYPREAKVQWKVDNALQSGNSQESVTEQDSKDSTYSLSSTLTLSKADYEKHKVYACEVTHQGLSSPVTKSFNRGEC | 75 | 42 | – |
| PD-1 1.5 PD010 2001 (antibody, human IgG4 S228P, kappa) heavy: not shown light: QGQSGQGGLCSWYLSSSGLCVDGGGSSGGSISSGLLSGRSDNHGGGSDIQLTQSPSSLSASVGDRVTITCRASESVDAYGISFMNWFQQKPGKAPKLLIYAASNQGSGVPSRFSGSGSGTDFTLTISSMQPEDFATYYCQQSKDVPWTFGQGTKLEIKRTVAAPSVFIFPPSDEQLKSGTASVVCLLNNFYPREAKVQWKVDNALQSGNSQESVTEQDSKDSTYSLSSTLTLSKADYEKHKVYACEVTHQGLSSPVTKSFNRGEC | 54 | 30 | – |
| PD-1 1.5 PD014 2001 (antibody, human IgG4 S228P, kappa) heavy: not shown light: QGQSGQGMSHCWMFSSSCDGVKGGGSSGGSISSGLLSGRSDNHGGGSDIQLTQSPSSLSASVGDRVTITCRASESVDAYGISFMNWFQQKPGKAPKLLIYAASNQGSGVPSRFSGSGSGTDFTLTISSMQPEDFATYYCQQSKDVPWTFGQGTKLEIKRTVAAPSVFIFPPSDEQLKSGTASVVCLLNNFYPREAKVQWKVDNALQSGNSQESVTEQDSKDSTYSLSSTLTLSKADYEKHKVYACEVTHQGLSSPVTKSFNRGEC | 100 | 56 | – |
| PD-1 1.5 PD008 2001 (antibody, human IgG4 S228P, kappa) heavy: not shown light: QGQSGQGETCNQYERSSGLCFAGGGSSGGSISSGLLSGRSDNHGGGSDIQLTQSPSSLSASVGDRVTITCRASESVDAYGISFMNWFQQKPGKAPKLLIYAASNQGSGVPSRFSGSGSGTDFTLTISSMQPEDFATYYCQQSKDVPWTFGQGTKLEIKRTVAAPSVFIFPPSDEQLKSGTASVVCLLNNFYPREAKVQWKVDNALQSGNSQESVTEQDSKDSTYSLSSTLTLSKADYEKHKVYACEVTHQGLSSPVTKSFNRGEC | 55 | 31 | – |
| PD-1 1.5 PD003 2001 (antibody, human IgG4 S228P, kappa) heavy: not shown light: QGQSGQGLVCPLYALSSGVCMGGGGSSGGSISSGLLSGRSDNHGGGSDIQLTQSPSSLSASVGDRVTITCRASESVDAYGISFMNWFQQKPGKAPKLLIYAASNQGSGVPSRFSGSGSGTDFTLTISSMQPEDFATYYCQQSKDVPWTFGQGTKLEIKRTVAAPSVFIFPPSDEQLKSGTASVVCLLNNFYPREAKVQWKVDNALQSGNSQESVTEQDSKDSTYSLSSTLTLSKADYEKHKVYACEVTHQGLSSPVTKSFNRGEC | 109 | 61 | – |
| PD-1 1.5 PD023 2001 (antibody, human IgG4 S228P, kappa) heavy: not shown light: QGQSGQGSMAGCQWSSFCVQRDGGGSSGGSISSGLLSGRSDNHGGGSDIQLTQSPSSLSASVGDRVTITCRASESVDAYGISFMNWFQQKPGKAPKLLIYAASNQGSGVPSRFSGSGSGTDFTLTISSMQPEDFATYYCQQSKDVPWTFGQGTKLEIKRTVAAPSVFIFPPSDEQLKSGTASVVCLLNNFYPREAKVQWKVDNALQSGNSQESVTEQDSKDSTYSLSSTLTLSKADYEKHKVYACEVTHQGLSSPVTKSFNRGEC | 31 | 17 | – |
| PD-1 1.5 PD015 2001 (antibody, human IgG4 S228P, kappa) heavy: not shown light: QGQSGQGVSYCTWLIEVTCLRGGGGSSGGSISSGLLSGRSDNHGGGSDIQLTQSPSSLSASVGDRVTITCRASESVDAYGISFMNWFQQKPGKAPKLLIYAASNQGSGVPSRFSGSGSGTDFTLTISSMQPEDFATYYCQQSKDVPWTFGQGTKLEIKRTVAAPSVFIFPPSDEQLKSGTASVVCLLNNFYPREAKVQWKVDNALQSGNSQESVTEQDSKDSTYSLSSTLTLSKADYEKHKVYACEVTHQGLSSPVTKSFNRGEC | 117 | 65 | – |
| DYTYCRWVNWCLSGV (bacterial display clone; also called MP01; MP-01) [masking moiety MP001] | – | – | binds |
